Experiment [1] has as its target T1, human tissue factor pathway inhibitor (TFPI) (human, UniProt P10646 29-304, limits assumed).
T1 construct: Bought protein; also called human TFPI; hTFPI
T1 sequence (looked up): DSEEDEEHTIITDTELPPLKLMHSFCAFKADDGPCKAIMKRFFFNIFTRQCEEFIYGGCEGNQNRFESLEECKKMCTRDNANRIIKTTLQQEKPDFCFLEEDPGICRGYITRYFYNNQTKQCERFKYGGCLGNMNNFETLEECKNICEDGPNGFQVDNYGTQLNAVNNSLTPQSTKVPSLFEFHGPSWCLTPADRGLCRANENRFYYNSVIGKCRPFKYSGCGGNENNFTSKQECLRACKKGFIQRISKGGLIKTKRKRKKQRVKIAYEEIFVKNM
Put plainly: ELISA, Fab lysate on coated human TFPI. How it is done:
(§1) To select antibody clones that bind to human TFPI, Fab genes of the phage clones from the second and third round of panning were subcloned into a bacterial expression vector and expressed in E. coli strain TG1. The bacterial lysate was added to the wells of the human TFPI-coated Maxisorp plates. After washing, HRP-conjugated goat anti-human Fab was used as a detection antibody and the plates were developed by adding AmplexRed (Invitrogen) with hydrogen peroxide. A signal of at least five-fold higher than the background was considered as positive. The cross reactivity of the anti-human TFPI antibodies to mouse TFPI was determined by a similar mouse TFPI-binding ELISA. The plates were coated with mouse TFPI (R&D System), BSA and lysozyme. The later two antigens were used as negative controls.

Experiment [2] addresses T2, BSA (bovine, UniProt P02769 25-607).
T2 construct: also called bovine serum albumin
Put plainly: ELISA. The method, then: as §1
Background: ELISA stands for enzyme-linked immunosorbent assay.

Experiment [3] addresses T1, human tissue factor pathway inhibitor …. Put plainly: ELISA, Fab on coated TFPI. How it is done:
as §1
(§2) Purified Fab antibodies were used to determine EC₅₀ of anti-TFPI antibodies to human or mouse TFPI. EC₅₀ was assessed in an ELISA, similarly as described above. The results were analyzed using SoftMax. The binding affinity of anti-TFPI antibodies was determined in a Biacore assay. Briefly, the antigen, either human or mouse TFPI, was immobilized on the CM5-chips using the amine coupling kit (GE HealthCare) according to the instructions of the manufacturer. The amount of immobilized TFPI was adjusted to the mass of the antigen to give approximate 300 RU. The antibody Fabs were analyzed in mobile phase and at least five different concentrations (0.1, 0.4, 1.6, 6.4 and 25 nM) of the purified antibodies were used in the Biacore assay. The kinetics and binding affinity were calculated using Biacore T100 Evaluation software.

Experiment [4] has the same target. As to the kind of experiment: Biacore, TFPI on CM5 chip, Fab in mobile phase. How it is done: as §2
(In general: Surface plasmon resonance follows binding to a sensor surface in real time, without labels.)

As usually defined, the EC50 is the concentration that produces a half-maximal response. A low value points to an effect from little substance. By Kd is commonly meant the concentration at which binding is half-saturated. A lower Kd goes with tighter binding.

T2 sequence (P02769 25-607 limits assumed): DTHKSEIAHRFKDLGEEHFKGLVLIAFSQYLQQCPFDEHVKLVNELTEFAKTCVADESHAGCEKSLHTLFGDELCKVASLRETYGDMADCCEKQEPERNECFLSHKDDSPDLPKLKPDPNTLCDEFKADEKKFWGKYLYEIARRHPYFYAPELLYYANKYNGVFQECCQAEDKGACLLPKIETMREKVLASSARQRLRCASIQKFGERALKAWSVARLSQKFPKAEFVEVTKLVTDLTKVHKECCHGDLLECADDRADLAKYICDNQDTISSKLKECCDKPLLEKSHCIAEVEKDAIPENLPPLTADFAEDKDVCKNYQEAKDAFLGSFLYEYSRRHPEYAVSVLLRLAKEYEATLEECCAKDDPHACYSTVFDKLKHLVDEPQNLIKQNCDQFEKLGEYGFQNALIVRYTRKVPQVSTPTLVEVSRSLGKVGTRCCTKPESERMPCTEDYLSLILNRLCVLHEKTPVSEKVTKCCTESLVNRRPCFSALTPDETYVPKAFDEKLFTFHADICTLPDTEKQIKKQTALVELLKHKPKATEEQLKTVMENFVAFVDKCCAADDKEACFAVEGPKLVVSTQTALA

B1: TP-2F9 Fab (Fab, V domains shown)
VH: QVQLVESGGGLVQPGGSLRLSCAASGFTFYKYAMHWVRQAPGKGLEWVSGIQYDGSYTYYADSVKGRFTISRDNSKNTLYLQMNSLRAEDTAVYYCARYYCKCVDLWGQGTLVTVSS
VL: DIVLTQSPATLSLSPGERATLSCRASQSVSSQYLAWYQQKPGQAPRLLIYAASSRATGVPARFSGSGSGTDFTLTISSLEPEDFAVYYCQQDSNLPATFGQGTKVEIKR
notes: Human Fab from HuCal Gold, expressed in E. coli TG1
Turning to B1, the binding result in experiment [1] was “binds”; in experiment [2] it was “no binding”.

B2: TP-2B4 Fab (Fab, V domains shown)
VH: QVQLVESGGGLVQPGGSLRLSCAASGFTFSNYSMTWVRQAPGKGLEWVSGISYNGSNTYYADSVKGRFTISRDNSKNTLYLQMNSLRAEDTAVYYCARIYYMNLLAGWGQGTLVTVSS
VL: DIELTQPPSVSVAPGQTARISCSGDALGTYYAYWYQQKPGQAPVLVIYGDMNRPSGIPERFSGSNSGNTATLTISGTQAEDEADYYCQSYDAGVKPAVFGGGTKLTVLG
notes: as for B1
For B2, the binding result in experiment [1] was “binds”; in experiment [2], “no binding”.

B3: TP-2B8 Fab (Fab, V domains shown)
VH: QVQLVQSGAEVKKPGASVKVSCKASGYTFTGNSMHWVRQAPGQGLEWMGTIFPYDGTTKYAQKFQGRVTMTRDTSISTAYMELSSLRSEDTAVYYCARGVHSYFDYWGQGTLVTVSS
VL: DIELTQPPSVSVAPGQTARISCSGDNLRGYYASWYQQKPGQAPVLVIYEDNNRPSGIPERFSGSNSGNTATLTISGTQAEDEADYYCQSWDSPYVHVFGGGTKLTVLG
notes: as for B1
Turning to B3, the binding result is recorded as “binds” in experiment [1] and “no binding” in experiment [2].

B4: TP-2G2 Fab (Fab, V domains shown)
VH: QVQLVESGGGLVQPGGSLRLSCAASGFTFSSYAMNWVRQAPGKGLEWVSAILSDGSSTSYADSVKGRFTISRDNSKNTLYLQMNSLRAEDTAVYYCARYPDWGWYTDVWGQGTLVTVSS
VL: DIELTQPPSVSVAPGQTARISCSGDNIRKFYVHWYQQKPGQAPVLVIYGTNKRPSGIPERFSGSNSGNTATLTISGTQAEDEADYYCQSYDSKFNTVFGGGTKLTVLG
notes: as for B1
In the case of B4, the figures for the binding result in experiment [1] and in experiment [2] were “binds” and “no binding”, respectively.

B5: TP-2B1 Fab (Fab, V domains shown)
VH: QVQLVESGGGLVQPGGSLRLSCAASGFTFSSYSMSWVRQASGKGLEWVSSIKGSGSNTYYADSVKGRFTISRDNSKNTLYLQMNSLRAEDTAVYYCARNGGLIDVWGQGTLVTVSS
VL: DIELTQPPSVSVAPGQTARISCSGDNLGNKYAHWYQQKPGQAPVLVIYYDNKRPSGIPERFSGSNSGNTATLTISGTQAEDEADYYCQSWTPGSNTMVFGGGTRLTVLG
notes: as for B1
Take B5: the binding result is reported as “binds” in experiment [1] and “no binding” in experiment [2].

B6: TP-2A6 Fab (Fab, V domains shown)
VH: QVQLVESGGGLVQPGGSLRLSCAASGFTFSRYAMSWVRQAPGKGLEWVSSIISSSSETYYADSVKGRFTISRDNSKNTLYLQMNSLRAEDTAVYYCARLMGYGHYYPFDYWGQGTLVTVSS
VL: DIELTQPPSVSVAPGQTARISCSGDKIGSKYVYWYQQKPGQAPVLVIYDSNRPSGIPERFSGSNSGNTATLTISGTQAEDEADYYCASYDSIYSYWVFGGGTKLTVLG
notes: as for B1
Turning to B6, the binding result in experiment [1] was “binds”; in experiment [2], “no binding”.

B7: TP-2G4 Fab (Fab, V domains shown)
VH: QVQLVESGGGLVQPGGSLRLSCAASGFTFSSYAMTWVRQAPGKGLEWVSNISYSGSNTYYADSVKGRFTISRDNSKNTLYLQMNSLRAEDTAVYYCARVGYYYGFDYWGQGTLVTVSS
VL: DIELTQPPSVSVAPGQTARISCSGDALRKHYVYWYQQKPGQAPVLVIYGDNNRPSGIPERFSGSNSGNTATLTISGTQAEDEADYYCQSYDKPYPILVFGGGTKLTVLG
notes: as for B1
Take B7: the binding result in experiment [1] is recorded as “binds”; in experiment [2] it was “no binding”.

B8: TP-3B3 Fab (Fab, V domains shown)
VH: QVQLVESGGGLVQPGGSLRLSCAASGFTFSSYGMHWVRQAPGKGLEWVSNISYMGSNTNYADSVKGRFTISRDNSKNTLYLQMNSLRAEDTAVYYCARGLFPGYFDYWGQGTLVTVSS
VL: DIELTQPASVSVAPGQTARISCSGDNLRSKYAHWYQQKPGQAPVLVIYGDNNRPSGIPERFSGSNSGNTATLTISGTQAEDEADYYCSAYAMGSSPVFGGGTKLTVLG
notes: as for B1
In the case of B8, the binding result in experiment [1] is given as “binds”; in experiment [2], “no binding”.

B9: TP-2B9 Fab (Fab, V domains shown)
VH: QVQLQQSGPGLVKPSQTLSLTCAISGDSVSSNSAAWGWIRQSPGRGLEWLGMIYHRSKWYNDYAVSVKSRITINPDTSKNQFSLQLNSVTPEDTAVYYCARYSSIGHMDYWGQGTLVTVSS
VL: DIQMTQSPSSLSASVGDRVTITCRASQSIRSYLAWYQQKPGKAPKLLIYKASNLQSGVPSRFSGSGSGTDFTLTISSLQPEDFAVYYCHQYSDSPVTFGQGTKVEIKR
notes: as for B1
In the case of B9, the binding result is “binds” in experiment [1] and “no binding” in experiment [2].

B10: TP-2E3 Fab (Fab, V domains shown)
VH: QVQLQQSGPGLVKPSQTLSLTCAISGDSVSSNSAAWGWIRQSPGRGLEWLGMIYYRSKWYNDYAVSVKSRITINPDTSKNQFSLQLNSVTPEDTAVYYCARVNQYTSSDYWGQGTLVTVSS
VL: DIALTQPASVSGSPGQSITISCTGTSSDIGGYNYVSWYQQHPGKAPKLMIYGVNYRPSGVSNRFSGSKSGNTASLTISGLQAEDEADYYCSSADKFTMSIVFGGGTKLTVLG
notes: as for B1
B10: the values for the binding result in experiment [1] and in experiment [2] were “binds” and “no binding”, respectively.

B11: TP-3A3 Fab (Fab, V domains shown)
VH: QVQLVESGGGLVQPGGSLRLSCAASGFTFNNNAISWVRQAPGKGLEWVSAINSSSSSTSYADSVKGRFTISRDNSKNTLYLQMNSLRAEDTAVYYCARGHHRGHSWASFIDYWGQGTLVTVSS
VL: DIELTQPPSVSVAPGQTARISCSGDNIGSKYVHWYQQKPGQAPVVVIYEDSDRPSGIPERFSGSNSGNTATLTISGTQAEDEADYYCQSWDKSEGYVFGGGTKLTVLG
notes: as for B1
Consider B11, for which the binding result in experiment [1] is reported as “binds”; in experiment [2], “no binding”.

B12: TP-3F1 Fab (Fab, V domains shown)
VH: QVQLVQSGAEVKKPGESLKISCKGSGYSFTDYWIGWVRQMPGKGLEWMGIIQPSDSDTNYSPSFQGQVTISADKSISTAYLQWSSLKASDTAMYYCARFMWWGKYDSGFDVWGQGTLVTVSS
VL: DIELTQPPSVSVAPGQTARISCSGDNIGSYFASWYQQKPGQAPVLVIYDDSNRPSGIPERFSGSNSGNTATLTISGTQAEDEADYYCEGSNVFGGGTKLTVLG
notes: as for B1
Regarding B12, the binding result in experiment [2] is “no binding”.

B13: TP-2A10 Fab (Fab, V domains shown)
VH: QVQLVESGGGLVQPGGSLRLSCAASGFTFTSYSMNWVRQAPGKGLEWVSAISYTGSNTHYADSVKGRFTISRDNSKNTLYLQMNSLRAEDTAVYYCARAFLGYKESYFDIWGQGTLVTVSS
VL: DIELTQPPSVSVAPGQTARISCSGDKLGKKYVHWYQQKPGQAPVLVIYGDDKRPSGIPERFSGSNSGNTATLTISGTQAEDEADYYCQAWGSISRFVFGGGTKLTVLG
notes: as for B1
In the case of B13, the values for the binding result in experiment [1] and in experiment [2] were “binds” and “no binding”, respectively.

B14: TP-2D7 Fab (Fab, V domains shown)
VH: QVQLQQSGPGLVKPSQTLSLTCAISGDSVSSNSAAWGWIRQSPGRGLEWLGLIYYRSKWYNDYAVSVKSRITINPDTSKNQFSLQLNSVTPEDTAVYYCARFGDTNRNGTDVWGQGTLVTVSS
VL: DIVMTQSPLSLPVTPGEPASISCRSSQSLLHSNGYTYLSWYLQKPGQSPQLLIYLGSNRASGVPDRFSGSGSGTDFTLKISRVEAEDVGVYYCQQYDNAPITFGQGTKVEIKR
notes: as for B1
On to B14, for which the binding result in experiment [1] is given as “binds”; in experiment [2], “no binding”.

B15: TP-4A9 Fab (Fab, V domains shown)
VH: QVQLVESGGGLVQPGGSLRLSCAASGFTFSSYGMSWVRQAPGKGLEWVSLISGVSSSTYYADSVKGRFTISRDNSKNTLYLQMNSLRAEDTAVYYCARSYLGYFDVWGQGTLVTVSS
VL: DIELTQPPSVSVAPGQTARISCSGDALGKYYASWYQQKPGQAPVLVIYGDNKRPSGIPERFSGSNSGNTATLTISGTQAEDEADYYCQSYTTRSLVFGGGTKLTVLG
notes: as for B1
With B15, the midpoint of the response in experiment [3], the EC50, lay at 0.17 nM. Besides, the Kd in experiment [4] was 7.6 nM. Besides, the binding result in experiment [2] is “no binding”.

B16: TP-3A2 Fab (Fab, V domains shown)
VH: QVQLVESGGGLVQPGGSLRLSCAASGFTFSNYYLSWVRQAPGKGLEWVSGISYNGSSTNYADSVKGRFTISRDNSKNTLYLQMNSLRAEDTAVYYCARMWRYSLGADSWGQGTLVTVSS
VL: DIELTQPPSVSVAPGQTARISCSGDNIGSRYAYWYQQKPGQAPVVVIYDDSDRPSGIPERFSGSNSGNTATLTISGTQAEDEADYYCAAYTFYARTVFGGGTKLTVLG
notes: as for B1
As to B16, the binding result in experiment [1] is given as “binds”; in experiment [2], “no binding”.

Source of the values: patent publication US20120269817A1 (Bayer, published 2012).
